{"source": "paper PMC3489985", "about": "(Analytical biochemistry, 2012)", "molecules": {"B1": {"name": "CpGSTD1 (Culex pipiens) (protein)", "chain": "MDFYYLPGSAPCRAVQMTAAAVGVELNLKLTNLMAGEHMKPEFLKLNPQHTIPTLVDNGFSLWESRAIQIYLVEKYGKDDSLYPKDPQKRALVNQRLFFDMGVFYQRFGDYWYPQIFAKQPANADNEKKMQEAVAFLNTFLEGHQYAAGDQLTIADLSLAASAATYEVAGFDFSKYPNVQAWLERCKKNAPGYDLNQAGADEFNAKFLGGK"}}, "key": {"CpGSTD1": {"target": "CpGSTD1 (Culex pipiens, UniProt H9M8E3)", "experiment": "spectrophotometric enzyme kinetics", "type": "biochemical"}, "[1]": {"tested_on": "O=[N+]([O-])c1ccc(Cl)c(Cl)c1", "experiment": "spectrophotometric enzyme kinetics", "type": "biochemical, Culex pipiens", "conditions": "30.0 °C"}, "[2]": {"substrate": "Cc1cc(=O)oc2ccc(OC(=O)[C@H]3[C@@H](C=C(Cl)Cl)C3(C)C)cc12", "experiment": "fluorescent enzyme kinetics", "type": "biochemical, Culex pipiens", "conditions": "GSH; 30.0 °C"}, "[3]": {"substrate": "Cc1cc(=O)oc2ccc(OC(=O)[C@H]3[C@@H](/C=C(\\Cl)C(F)(F)F)C3(C)C)cc12", "experiment": "fluorescent enzyme kinetics", "type": "biochemical, Culex pipiens", "conditions": "GSH; 30.0 °C"}}, "data": [{"molecule": "O=[N+]([O-])c1ccc(Cl)c([N+](=O)[O-])c1", "note": "[CDNB, 1-chloro-2,4-dinitrobenzene]", "values": [{"measurement": "Km", "setting": "CpGSTD1", "value": "240 ± 18", "unit": "µM"}]}, {"molecule": "CpGSTD1 (Culex pipiens)", "values": [{"measurement": "Km", "setting": "[1]", "value": "691 ± 106", "unit": "µM"}, {"measurement": "Vmax", "setting": "[1]", "value": "2.32 ± 0.152", "unit": "µmol/min/mg"}, {"measurement": "kcat", "setting": "[1]", "value": 0.92, "unit": "s⁻¹"}, {"measurement": "kcat/Km", "setting": "[1]", "value": 1300, "unit": "M⁻¹ s⁻¹"}]}, {"molecule": "B1", "values": [{"measurement": "Km", "setting": "[2]", "value": "9.0 ± 0.8", "unit": "µM"}, {"measurement": "Vmax", "setting": "[2]", "value": 0.298, "unit": "µmol/min/mg"}, {"measurement": "kcat", "setting": "[2]", "value": 0.12, "unit": "s⁻¹"}, {"measurement": "kcat/Km", "setting": "[2]", "value": 13000, "unit": "M⁻¹ s⁻¹"}, {"measurement": "Km", "setting": "[3]", "value": "10.0 ± 0.7", "unit": "µM"}, {"measurement": "Vmax", "setting": "[3]", "value": 0.487, "unit": "µmol/min/mg"}, {"measurement": "kcat", "setting": "[3]", "value": 0.19, "unit": "s⁻¹"}, {"measurement": "kcat/Km", "setting": "[3]", "value": 19000, "unit": "M⁻¹ s⁻¹"}]}]}
